Molecular target: Shroom2 ASD2 domain (UniProt Q13796)
Assay: pull-down of Ala mutants
Details: reference: Scrib-C wild type; sites S1508

Sequence of UniProt Q13796 (Q13796 whole entry, looked up, the tested form may be a part): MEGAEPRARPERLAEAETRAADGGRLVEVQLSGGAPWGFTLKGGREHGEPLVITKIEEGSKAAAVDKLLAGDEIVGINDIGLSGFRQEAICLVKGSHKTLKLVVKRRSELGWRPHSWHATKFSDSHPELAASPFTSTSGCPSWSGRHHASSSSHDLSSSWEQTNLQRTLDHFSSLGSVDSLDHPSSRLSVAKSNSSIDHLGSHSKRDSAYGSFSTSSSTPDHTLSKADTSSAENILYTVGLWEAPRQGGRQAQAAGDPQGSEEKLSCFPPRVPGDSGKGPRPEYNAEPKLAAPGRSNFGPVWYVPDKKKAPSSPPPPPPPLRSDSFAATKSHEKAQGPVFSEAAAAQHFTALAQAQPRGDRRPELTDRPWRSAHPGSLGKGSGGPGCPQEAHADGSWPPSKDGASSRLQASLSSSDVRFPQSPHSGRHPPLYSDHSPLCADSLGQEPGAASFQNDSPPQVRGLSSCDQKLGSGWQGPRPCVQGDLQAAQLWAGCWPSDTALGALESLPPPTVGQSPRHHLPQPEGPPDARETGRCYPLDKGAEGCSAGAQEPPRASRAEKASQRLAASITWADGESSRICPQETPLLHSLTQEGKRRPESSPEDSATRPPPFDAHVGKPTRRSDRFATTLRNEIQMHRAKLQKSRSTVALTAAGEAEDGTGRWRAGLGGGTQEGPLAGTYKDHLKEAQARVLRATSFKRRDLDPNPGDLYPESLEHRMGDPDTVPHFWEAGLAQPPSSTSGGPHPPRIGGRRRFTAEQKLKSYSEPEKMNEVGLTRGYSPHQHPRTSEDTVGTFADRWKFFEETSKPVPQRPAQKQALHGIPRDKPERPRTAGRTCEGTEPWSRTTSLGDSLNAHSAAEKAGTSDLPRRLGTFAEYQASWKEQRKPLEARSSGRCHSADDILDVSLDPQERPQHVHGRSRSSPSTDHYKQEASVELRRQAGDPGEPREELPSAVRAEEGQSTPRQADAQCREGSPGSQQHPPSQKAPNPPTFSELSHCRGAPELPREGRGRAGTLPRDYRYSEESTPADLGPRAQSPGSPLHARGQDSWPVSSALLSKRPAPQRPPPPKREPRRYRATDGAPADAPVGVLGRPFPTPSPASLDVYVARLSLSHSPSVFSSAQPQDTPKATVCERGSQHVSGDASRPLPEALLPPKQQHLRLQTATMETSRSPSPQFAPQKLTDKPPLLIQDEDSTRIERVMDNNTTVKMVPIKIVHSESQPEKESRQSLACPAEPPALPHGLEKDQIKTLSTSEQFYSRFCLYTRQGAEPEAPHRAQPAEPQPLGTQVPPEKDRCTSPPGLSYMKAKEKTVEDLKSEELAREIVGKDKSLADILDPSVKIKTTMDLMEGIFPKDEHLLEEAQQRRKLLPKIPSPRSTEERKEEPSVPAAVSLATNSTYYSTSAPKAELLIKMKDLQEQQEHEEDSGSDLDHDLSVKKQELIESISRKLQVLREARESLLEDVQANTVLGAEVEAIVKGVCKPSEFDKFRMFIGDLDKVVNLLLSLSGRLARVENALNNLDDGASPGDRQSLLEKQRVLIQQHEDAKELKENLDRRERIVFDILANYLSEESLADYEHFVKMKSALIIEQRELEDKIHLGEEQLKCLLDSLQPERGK

“Scrib Scrib-C, 1235-1630 (from UniProt Q14160-1) Scrib-C S1508A” was tested. Which “binding against the reference” value did it give?
The value was “weaker”.
